Numbering of substitutions follows the chain as printed. Names may count otherwise. Read-outs that look alike come from different tables or passages of the source. Each block holds one binder with its values, some of them ahead of it. Where no end group is shown, it is not given here.
Experiments:
[1] = biological target: T1, TBD-1 wt; test: competition ELISA: peptide titrated and pre-incubated with a constant concentration of TBD-1, then added to plate-bound biotinylated TROP2; blocked ligand TROP2 (2.m7)
T1 construct: Fab; the heavy chain entry is VH-CH1; also called wild-type anti-TROP2 Fab (hRS7); TROP2 Fab

[2] = biological target: T2, TCE-13 (anti-CD3 scFv N103A; anti-TROP2 wt); test: competition ELISA, TCE on captured CD3
T2 construct: scFv on the Fab heavy chain; also called TCE-13 (N103A)

[3] = biological target: T3, TCE-14 (anti-CD3 scFv F104A; anti-TROP2 wt); test: competition ELISA, TCE on captured CD3
T3 construct: scFv on the Fab heavy chain; also called TCE-14 (F104A)

[4] = biological target: T4, TCE-20 (anti-CD3 scFv S110A; anti-TROP2 wt); test: competition ELISA, TCE on captured CD3
T4 construct: scFv on the Fab heavy chain; also called TCE-20 (S110A)

[5] = biological target: T5, TCE-22 (anti-CD3 scFv W112A; anti-TROP2 wt); test: competition ELISA, TCE on captured CD3
T5 construct: scFv on the Fab heavy chain; also called TCE-22 (W112A)

[6] = biological target: T6, TCE-26 (anti-CD3 scFv W233A; anti-TROP2 HC wt); test: competition ELISA, TCE on captured CD3
T6 construct: scFv on the Fab heavy chain; also called TCE-26 (W233A)

[7] = biological target: T7, TCE-31 (anti-CD3 scFv W238A; anti-TROP2 wt); test: competition ELISA, TCE on captured CD3
T7 construct: scFv on the Fab heavy chain; also called TCE-31 (W238A)

[8] = biological target: T8, TCE-33 (anti-CD3 scFv F240A; anti-TROP2 wt); test: competition ELISA, TCE on captured CD3
T8 construct: scFv on the Fab heavy chain; also called TCE-33 (F240A)

[9] = biological target: T9, TCE-1 (anti-CD3 scFv wt; anti-TROP2 Fab wt); test: competition ELISA: peptide titrated and pre-incubated with a constant concentration of TCE-1, binding of TCE-1 to plate-bound biotinylated CD3 detected
T9 construct: anti-CD3 scFv fused to the N-terminus of the anti-TROP2 Fab heavy chain; also called TCE-1 (wt)

[10] = biological target: T10, Human TROP2 ECD (31-274 AA), biotinylated (human, UniProt P09758 31-274, biotinylated (site not stated)); test: ELISA on immobilized TROP2
T10 construct: also called tumor-associated calcium signal transducer 2; Human TROP2-biotin
T10 sequence: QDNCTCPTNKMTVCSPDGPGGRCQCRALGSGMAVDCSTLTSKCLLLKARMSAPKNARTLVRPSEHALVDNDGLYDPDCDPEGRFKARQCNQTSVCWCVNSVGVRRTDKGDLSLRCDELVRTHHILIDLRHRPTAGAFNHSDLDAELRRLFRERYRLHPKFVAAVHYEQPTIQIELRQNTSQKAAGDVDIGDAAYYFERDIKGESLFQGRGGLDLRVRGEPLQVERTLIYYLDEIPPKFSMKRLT

[11] = biological target: T10, Human TROP2 ECD (31-274 AA), …; test: ELISA on immobilized TROP2; remark: listed apart in the source
[12] = biological target: T11, TCE-11 (anti-CD3 scFv H101A; anti-TROP2 wt); test: competition ELISA, TCE on captured CD3
T11 construct: scFv on the Fab heavy chain; also called TCE-11 (H101A)

[13] = biological target: T12, TCE-10 (anti-CD3 scFv R100A; anti-TROP2 wt); test: competition ELISA, TCE on captured CD3
T12 construct: scFv on the Fab heavy chain; also called TCE-10 (R100A)

[14] = biological target: T13, Peptide-70 (cysteine pairing not given here; also: biotinylated, site not given here); test: ELISA, TCE on captured biotin-peptide
T13 construct: mask peptide for the CD3 scFv
T13 peptide: YLCGPDGDETLACY

[15] = biological target: T14, Peptide-76 (cysteine pairing not given here; also: biotinylated, site not given here); test: ELISA, TCE on captured biotin-peptide
T14 construct: mask peptide for the CD3 scFv
T14 peptide: YLCGPDADETLACY

[16] = biological target: T15, Peptide-77 (cysteine pairing not given here; also: biotinylated, site not given here); test: ELISA, TCE on captured biotin-peptide
T15 construct: mask peptide for the CD3 scFv
T15 peptide: YLCGPDTDETLACY

Binder: SECLVDLQSDPCYW (cysteine pairing not given here; also: biotinylated, site not given here, mask peptide for the CD3 scFv) [Peptide-69]
IC50 [2]: 50.5 µM
IC50 [3]: 11.8 µM
IC50 [4]: 4.24 µM
IC50 [5]: 56.8 µM
IC50 [6]: 2.02 µM
IC50 [7]: 6.57 µM
IC50 [8]: 0.81 µM
binding result [9]: binds

B1: PC-6 (bispecific antibody)
light: GGVDFCGLYHWPICYQGGGGSGGLSGRSDAGSPLGLAGSGGSDIQLTQSPSSLSASVGDRVSITCKASQDVSIAVAWYQQKPGKAPKLLIYSASYRYTGVPDRFSGSGSGTDFTLTISSLQPEDFAVYYCQQHYITPLTFGAGTKVEIKRTVAAPSVFIFPPSDEQLKSGTASVVCLLNNFYPREAKVQWKVDNALQSGNSQESVTEQDSKDSTYSLSSTLTLSKADYEKHKVYACEVTHQGLSSPVTKSFNRGEC
heavy: not shown
notes: anti-TROP2 wt
EC50 [10]: 0.0329 µM
EC50 [11]: 0.0166 µM

B2: PC-28 (bispecific antibody)
light: B1 light with V3I, G7M, H10N, Y15A, Q16G
heavy: not shown
notes: anti-TROP2 wt
EC50 [11]: 0.025 µM

B3: PC-5 (bispecific antibody)
light: B1 light with V3I, G7M, H10N, Y15A, Q16G
heavy: not shown
notes: anti-TROP2 wt
EC50 [10]: 0.0245 µM
EC50 [11]: 0.00915 µM

Binder: QGCGTIADPEPHCW (cysteine pairing not given here; also: biotinylated, site not given here, mask peptide for the CD3 scFv) [Peptide-65]
IC50 [12]: 85 µM
IC50 [3]: 6.46 µM
IC50 [4]: 6.54 µM
IC50 [6]: 2.64 µM
IC50 [7]: 17.7 µM
IC50 [8]: 0.62 µM
IC50 (read off the curve) [9]: ~2 µM

Binder: DWCWYSPDNDGLCD (cysteine pairing not given here; also: biotinylated, site not given here, mask peptide for the CD3 scFv) [Peptide-68]
IC50 [13]: 88.9 µM
IC50 [3]: 1.08 µM
IC50 [4]: 0.4 µM
IC50 [6]: 43 µM
IC50 [7]: 9.47 µM
IC50 [8]: 7.35 µM
binding result [9]: binds

Binder: IDFCLLYDWPVCAS [Peptide-16]
IC50 (read off the curve) [1]: ~3 µM

B5: TCE-7 (anti-CD3 scFv wt; anti-TROP2 F108A) (bispecific antibody)
light: DIQLTQSPSSLSASVGDRVSITCKASQDVSIAVAWYQQKPGKAPKLLIYSASYRYTGVPDRFSGSGSGTDFTLTISSLQPEDFAVYYCQQHYITPLTFGAGTKVEIKRTVAAPSVFIFPPSDEQLKSGTASVVCLLNNFYPREAKVQWKVDNALQSGNSQESVTEQDSKDSTYSLSSTLTLSKADYEKHKVYACEVTHQGLSSPVTKSFNRGEC
heavy: not shown
notes: scFv on the Fab heavy chain
EC50 [14]: 0.0004 µM
EC50 [15]: 0.00456 µM
EC50 [16]: 0.0632 µM

Binder: VDCGPDGDESILCY (cysteine pairing not given here; also: biotinylated, site not given here, mask peptide for the CD3 scFv) [Peptide-71]
IC50 [13]: 1.35 µM
IC50 [12]: 3.72 µM
IC50 [2]: 5.08 µM
IC50 [4]: 11.8 µM
IC50 [5]: 13.8 µM
IC50 [6]: 75.4 µM
IC50 [7]: 51 µM
IC50 [8]: 4.83 µM
binding result [9]: binds

The remaining lines, values ahead:

binding result [1]: binds
Binder: VDFCYQYGWPICSR [Peptide-23]

binding result [1]: binds
Binder: IDFCSLYQWPVCGT [Peptide-21]

binding result [1]: binds
Binder: PDFCQLYNWPVCAG [Peptide-19]

binding result [1]: binds
Binder: VDFCTIYKWPVCEG [Peptide-22]

EC50 [14]: 0.00034 µM
EC50 [15]: 0.00144 µM
EC50 [16]: 0.00921 µM
B4: TCE-37 (anti-CD3 scFv F104A; anti-TROP2 F108A) (bispecific antibody)
light: B5 light
heavy: not shown
notes: scFv on the Fab heavy chain
